“And” between values parts separate entries of the source, which are not always exact repeats. Identical values can stand only once.
Settings: Allium sativum, reversible: yes, whole UniProt chain shown; for denaturant m value / denaturant midpoint (higher = more stable) / unfolding free energy: GdnHCl
[1] = pH 5, Thermal, DSC, citrate phosphate 20 mM
[2] = pH 5.5, Thermal, DSC, citrate phosphate 20 mM
[3] = pH 5.8, Thermal, DSC, citrate phosphate 20 mM
[4] = pH 6, Thermal, DSC, citrate phosphate 20 mM
[5] = pH 7.5, 50.7 °C, Thermal, CD, PBS 20 mM
[6] = pH 7.5, 53.3 °C, Thermal, CD, PBS 20 mM
[7] = pH 7.5, 55.7 °C, Thermal, CD, PBS 20 mM
[8] = pH 7.5, 56.3 °C, Thermal, CD, PBS 20 mM
[9] = pH 7.5, 60.8 °C, Thermal, CD, PBS 20 mM
[10] = pH 7.5, 64.2 °C, Thermal, CD, PBS 20 mM
[11] = pH 7.5, 66.4 °C, Thermal, CD, PBS 20 mM

Sequence: RNILMNGEGLYAGQSLDVEPYHFIMQEDCN [wild type]
- Tm [1]: 75.5 °C
- unfolding enthalpy (van 't Hoff) [1]: 132 kcal/mol
- Tm [2]: 74.6 °C
- unfolding enthalpy (van 't Hoff) [2]: 130 kcal/mol
- Tm [3]: 73.9 °C
- unfolding enthalpy (van 't Hoff) [3]: 128 kcal/mol
- Tm [4]: 73.1 °C
- unfolding enthalpy (van 't Hoff) [4]: 125 kcal/mol
- Tm (pH 7, Thermal, DSC, PBS 20 mM): 70.9 °C
- unfolding enthalpy (van 't Hoff) (pH 7, Thermal, DSC, PBS 20 mM): 118 kcal/mol
- denaturant m value (pH 7.5, 10 °C, CD, PBS 20 mM): 2.61 kcal/mol/M
- denaturant midpoint (higher = more stable) (pH 7.5, 10 °C, CD, PBS 20 mM): 4.9 M
- unfolding free energy (pH 7.5, 10 °C, CD, PBS 20 mM): 12.8 kcal/mol
- denaturant m value (pH 7.5, 15 °C, CD, PBS 20 mM): 2.23 kcal/mol/M
- denaturant midpoint (higher = more stable) (pH 7.5, 15 °C, CD, PBS 20 mM): 5.84 M
- unfolding free energy (pH 7.5, 15 °C, CD, PBS 20 mM): 13 kcal/mol
- denaturant m value (pH 7.5, 20 °C, CD, PBS 20 mM): 2.25 kcal/mol/M
- denaturant midpoint (higher = more stable) (pH 7.5, 20 °C, CD, PBS 20 mM): 5.84 M
- unfolding free energy (pH 7.5, 20 °C, CD, PBS 20 mM): 13.1 kcal/mol
- denaturant m value (pH 7.5, 25 °C, CD, PBS 20 mM): 2.3 kcal/mol/M
- denaturant midpoint (higher = more stable) (pH 7.5, 25 °C, CD, PBS 20 mM): 5.6 M
- unfolding free energy (pH 7.5, 25 °C, CD, PBS 20 mM): 12.9 kcal/mol
- denaturant m value (pH 7.5, 30 °C, CD, PBS 20 mM): 2.64 kcal/mol/M
- denaturant midpoint (higher = more stable) (pH 7.5, 30 °C, CD, PBS 20 mM): 4.62 M
- unfolding free energy (pH 7.5, 30 °C, CD, PBS 20 mM): 12.2 kcal/mol
- denaturant m value (pH 7.5, 35 °C, CD, PBS 20 mM): 3.21 kcal/mol/M
- denaturant midpoint (higher = more stable) (pH 7.5, 35 °C, CD, PBS 20 mM): 3.4 M
- unfolding free energy (pH 7.5, 35 °C, CD, PBS 20 mM): 10.9 kcal/mol
- denaturant m value (pH 7.5, 40 °C, CD, PBS 20 mM): 4 kcal/mol/M
- denaturant midpoint (higher = more stable) (pH 7.5, 40 °C, CD, PBS 20 mM): 2.41 M
- unfolding free energy (pH 7.5, 40 °C, CD, PBS 20 mM): 9.65 kcal/mol
- denaturant m value (pH 7.5, 45 °C, CD, PBS 20 mM): 3.89 kcal/mol/M
- denaturant midpoint (higher = more stable) (pH 7.5, 45 °C, CD, PBS 20 mM): 1.99 M
- unfolding free energy (pH 7.5, 45 °C, CD, PBS 20 mM): 7.74 kcal/mol
- denaturant m value (pH 7.5, 50 °C, CD, PBS 20 mM): 3.83 kcal/mol/M
- denaturant midpoint (higher = more stable) (pH 7.5, 50 °C, CD, PBS 20 mM): 1.5 M
- unfolding free energy (pH 7.5, 50 °C, CD, PBS 20 mM): 5.75 kcal/mol
- heat capacity change of unfolding [5]: 3.64 kcal/mol/K
- unfolding enthalpy (van 't Hoff) [5]: 115 kcal/mol
- heat capacity change of unfolding [6]: 3.59 kcal/mol/K
- unfolding enthalpy (van 't Hoff) [6]: 118 kcal/mol
- heat capacity change of unfolding [7]: 3.5 kcal/mol/K
- unfolding enthalpy (van 't Hoff) [7]: 124 kcal/mol
- heat capacity change of unfolding [8]: 3.4 kcal/mol/K
- unfolding enthalpy (van 't Hoff) [8]: 136 kcal/mol
- heat capacity change of unfolding [9]: 3.32 kcal/mol/K
- unfolding enthalpy (van 't Hoff) [9]: 142 kcal/mol
- heat capacity change of unfolding [10]: 3.25 kcal/mol/K
- unfolding enthalpy (van 't Hoff) [10]: 153 kcal/mol
- heat capacity change of unfolding [11]: 3.2 kcal/mol/K
- unfolding enthalpy (van 't Hoff) [11]: 173 kcal/mol
- unfolding enthalpy (calorimetric) (pH 7.5, Thermal, DSC, PBS 20 mM): 96.4 kcal/mol and 116 kcal/mol and 118 kcal/mol
- Tm (pH 8, Thermal, DSC, PBS 20 mM): 69.2 °C
- unfolding enthalpy (van 't Hoff) (pH 8, Thermal, DSC, PBS 20 mM): 113 kcal/mol

Reference: FireProtDB (doi:10.1021/bi0027783)
